Reference: US20050123972A1 (Bristol-Myers Squibb, published 2005)

T1: wild-type human CCR3 (endogenous, on native human eosinophils) (human, UniProt P51677 1-355)
T1 construct: This is the endogenous receptor on human eosinophils; also called eotaxin receptor; wild-type intact receptor in eosinophils
T1 sequence: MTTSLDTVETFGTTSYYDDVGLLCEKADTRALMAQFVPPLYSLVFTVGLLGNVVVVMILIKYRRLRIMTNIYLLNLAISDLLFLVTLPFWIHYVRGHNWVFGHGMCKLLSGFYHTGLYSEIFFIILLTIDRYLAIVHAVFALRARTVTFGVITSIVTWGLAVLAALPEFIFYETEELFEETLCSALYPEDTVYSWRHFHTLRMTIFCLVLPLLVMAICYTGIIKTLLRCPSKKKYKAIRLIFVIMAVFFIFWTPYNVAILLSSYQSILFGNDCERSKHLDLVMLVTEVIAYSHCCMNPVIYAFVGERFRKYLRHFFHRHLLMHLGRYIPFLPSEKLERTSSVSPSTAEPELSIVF

B1: human eotaxin (125I-labeled human eotaxin, Perkin Elmer #NEX-314; unlabeled recombinant human eotaxin, R&D Systems #320-EO/CF) (ligand)
chain: not shown
modifications: 125I label (position not given) on the tracer form
notes: also called labeled (hot) eotaxin

Key:
[1] = target: B1; experiment: 125I-eotaxin binding to CHO CCR3/2 clone 5.5 cells, filter plate assay (FIG. 1)
Procedure: (§1) Invest. 97:604). In order to compare the ability of cells expressing chimeric human CCR3/2 molecules to that of cells expressing endogenous human CCR3 to bind eotaxin, a binding assay was performed. Depending upon the questions being asked, the cells in question were either human or mouse eosinophils, CHO-K1 cells expressing recombinant CCR3 or CCR3/2, parental CHO-K1 cells or other cell types. All assay steps were conducted at room temperature. Multiscreen assay plates (#MABVN1250, Millipore Inc., Marlborough, Mass.) were incubated with 100 μl/well of blocking solution (7.5 μg/ml protamine in PBS) to block non-specific binding. After 20 minutes, the blocking solution was removed and replaced with 100 μl of binding buffer, (RPMI 1640 (Life Technologies, Grand Island, N.Y.) containing 0.1% bovine serum albumin and 20 mM HEPES buffer) and incubated for at least an additional 10 minutes.
(§2) When ready to use plate(s), the following procedure was employed. […]
(§3) Binding data were analyzed using Microsoft EXCEL and then graphed using […] […]

[2] = target: T1, wild-type human CCR3 (endogenous, on …); experiment: 125I-eotaxin binding to cells, filter plate assay
Procedure: as §1, §2, §3

Row | binding result [1] | binding result [2] | Binder
1 | binds | – | chimeric CCR3/2 receptor (human CCR3 residues 1-310 joined to the cytoplasmic tail of human CCR2 isoform B), expressed on CHO-K1 cells (receptor, Expressed from the pFLAG-CMV-3 vector in CHO-K1 cells; also called CCR3/2 chimera; CHO CCR3/2 clone 5.5) MTTSLDTVETFGTTSYYDDVGLLCEKADTRALMAQFVPPLYSLVFTVGLLGNVVVVMILIKYRRLRIMTNIYLLNLAISDLLFLVTLPFWIHYVRGHNWVFGHGMCKLLSGFYHTGLYSEIFFIILLTIDRYLAIVHAVFALRARTVTFGVITSIVTWGLAVLAALPEFIFYETEELFEETLCSALYPEDTVYSWRHFHTLRMTIFCLVLPLLVMAICYTGIIKTLLRCPSKKKYKAIRLIFVIMAVFFIFWTPYNVAILLSSYQSILFGNDCERSKHLDLVMLVTEVIAYSHCCMNPVIYAFVGERFRKYLSVFFRKHITKRFCKQCPVFYRETVDGVTSTNTPSTGEQEVSAGL
2 | – | binds | B1
